Target: ryanodine receptors (rat (endogenous in rat ventricular myocytes)) (UniProt B0LPN4)
Test: fluorescence wash-in and wash-out in permeabilized myocytes

Chain of UniProt B0LPN4 (B0LPN4 whole entry): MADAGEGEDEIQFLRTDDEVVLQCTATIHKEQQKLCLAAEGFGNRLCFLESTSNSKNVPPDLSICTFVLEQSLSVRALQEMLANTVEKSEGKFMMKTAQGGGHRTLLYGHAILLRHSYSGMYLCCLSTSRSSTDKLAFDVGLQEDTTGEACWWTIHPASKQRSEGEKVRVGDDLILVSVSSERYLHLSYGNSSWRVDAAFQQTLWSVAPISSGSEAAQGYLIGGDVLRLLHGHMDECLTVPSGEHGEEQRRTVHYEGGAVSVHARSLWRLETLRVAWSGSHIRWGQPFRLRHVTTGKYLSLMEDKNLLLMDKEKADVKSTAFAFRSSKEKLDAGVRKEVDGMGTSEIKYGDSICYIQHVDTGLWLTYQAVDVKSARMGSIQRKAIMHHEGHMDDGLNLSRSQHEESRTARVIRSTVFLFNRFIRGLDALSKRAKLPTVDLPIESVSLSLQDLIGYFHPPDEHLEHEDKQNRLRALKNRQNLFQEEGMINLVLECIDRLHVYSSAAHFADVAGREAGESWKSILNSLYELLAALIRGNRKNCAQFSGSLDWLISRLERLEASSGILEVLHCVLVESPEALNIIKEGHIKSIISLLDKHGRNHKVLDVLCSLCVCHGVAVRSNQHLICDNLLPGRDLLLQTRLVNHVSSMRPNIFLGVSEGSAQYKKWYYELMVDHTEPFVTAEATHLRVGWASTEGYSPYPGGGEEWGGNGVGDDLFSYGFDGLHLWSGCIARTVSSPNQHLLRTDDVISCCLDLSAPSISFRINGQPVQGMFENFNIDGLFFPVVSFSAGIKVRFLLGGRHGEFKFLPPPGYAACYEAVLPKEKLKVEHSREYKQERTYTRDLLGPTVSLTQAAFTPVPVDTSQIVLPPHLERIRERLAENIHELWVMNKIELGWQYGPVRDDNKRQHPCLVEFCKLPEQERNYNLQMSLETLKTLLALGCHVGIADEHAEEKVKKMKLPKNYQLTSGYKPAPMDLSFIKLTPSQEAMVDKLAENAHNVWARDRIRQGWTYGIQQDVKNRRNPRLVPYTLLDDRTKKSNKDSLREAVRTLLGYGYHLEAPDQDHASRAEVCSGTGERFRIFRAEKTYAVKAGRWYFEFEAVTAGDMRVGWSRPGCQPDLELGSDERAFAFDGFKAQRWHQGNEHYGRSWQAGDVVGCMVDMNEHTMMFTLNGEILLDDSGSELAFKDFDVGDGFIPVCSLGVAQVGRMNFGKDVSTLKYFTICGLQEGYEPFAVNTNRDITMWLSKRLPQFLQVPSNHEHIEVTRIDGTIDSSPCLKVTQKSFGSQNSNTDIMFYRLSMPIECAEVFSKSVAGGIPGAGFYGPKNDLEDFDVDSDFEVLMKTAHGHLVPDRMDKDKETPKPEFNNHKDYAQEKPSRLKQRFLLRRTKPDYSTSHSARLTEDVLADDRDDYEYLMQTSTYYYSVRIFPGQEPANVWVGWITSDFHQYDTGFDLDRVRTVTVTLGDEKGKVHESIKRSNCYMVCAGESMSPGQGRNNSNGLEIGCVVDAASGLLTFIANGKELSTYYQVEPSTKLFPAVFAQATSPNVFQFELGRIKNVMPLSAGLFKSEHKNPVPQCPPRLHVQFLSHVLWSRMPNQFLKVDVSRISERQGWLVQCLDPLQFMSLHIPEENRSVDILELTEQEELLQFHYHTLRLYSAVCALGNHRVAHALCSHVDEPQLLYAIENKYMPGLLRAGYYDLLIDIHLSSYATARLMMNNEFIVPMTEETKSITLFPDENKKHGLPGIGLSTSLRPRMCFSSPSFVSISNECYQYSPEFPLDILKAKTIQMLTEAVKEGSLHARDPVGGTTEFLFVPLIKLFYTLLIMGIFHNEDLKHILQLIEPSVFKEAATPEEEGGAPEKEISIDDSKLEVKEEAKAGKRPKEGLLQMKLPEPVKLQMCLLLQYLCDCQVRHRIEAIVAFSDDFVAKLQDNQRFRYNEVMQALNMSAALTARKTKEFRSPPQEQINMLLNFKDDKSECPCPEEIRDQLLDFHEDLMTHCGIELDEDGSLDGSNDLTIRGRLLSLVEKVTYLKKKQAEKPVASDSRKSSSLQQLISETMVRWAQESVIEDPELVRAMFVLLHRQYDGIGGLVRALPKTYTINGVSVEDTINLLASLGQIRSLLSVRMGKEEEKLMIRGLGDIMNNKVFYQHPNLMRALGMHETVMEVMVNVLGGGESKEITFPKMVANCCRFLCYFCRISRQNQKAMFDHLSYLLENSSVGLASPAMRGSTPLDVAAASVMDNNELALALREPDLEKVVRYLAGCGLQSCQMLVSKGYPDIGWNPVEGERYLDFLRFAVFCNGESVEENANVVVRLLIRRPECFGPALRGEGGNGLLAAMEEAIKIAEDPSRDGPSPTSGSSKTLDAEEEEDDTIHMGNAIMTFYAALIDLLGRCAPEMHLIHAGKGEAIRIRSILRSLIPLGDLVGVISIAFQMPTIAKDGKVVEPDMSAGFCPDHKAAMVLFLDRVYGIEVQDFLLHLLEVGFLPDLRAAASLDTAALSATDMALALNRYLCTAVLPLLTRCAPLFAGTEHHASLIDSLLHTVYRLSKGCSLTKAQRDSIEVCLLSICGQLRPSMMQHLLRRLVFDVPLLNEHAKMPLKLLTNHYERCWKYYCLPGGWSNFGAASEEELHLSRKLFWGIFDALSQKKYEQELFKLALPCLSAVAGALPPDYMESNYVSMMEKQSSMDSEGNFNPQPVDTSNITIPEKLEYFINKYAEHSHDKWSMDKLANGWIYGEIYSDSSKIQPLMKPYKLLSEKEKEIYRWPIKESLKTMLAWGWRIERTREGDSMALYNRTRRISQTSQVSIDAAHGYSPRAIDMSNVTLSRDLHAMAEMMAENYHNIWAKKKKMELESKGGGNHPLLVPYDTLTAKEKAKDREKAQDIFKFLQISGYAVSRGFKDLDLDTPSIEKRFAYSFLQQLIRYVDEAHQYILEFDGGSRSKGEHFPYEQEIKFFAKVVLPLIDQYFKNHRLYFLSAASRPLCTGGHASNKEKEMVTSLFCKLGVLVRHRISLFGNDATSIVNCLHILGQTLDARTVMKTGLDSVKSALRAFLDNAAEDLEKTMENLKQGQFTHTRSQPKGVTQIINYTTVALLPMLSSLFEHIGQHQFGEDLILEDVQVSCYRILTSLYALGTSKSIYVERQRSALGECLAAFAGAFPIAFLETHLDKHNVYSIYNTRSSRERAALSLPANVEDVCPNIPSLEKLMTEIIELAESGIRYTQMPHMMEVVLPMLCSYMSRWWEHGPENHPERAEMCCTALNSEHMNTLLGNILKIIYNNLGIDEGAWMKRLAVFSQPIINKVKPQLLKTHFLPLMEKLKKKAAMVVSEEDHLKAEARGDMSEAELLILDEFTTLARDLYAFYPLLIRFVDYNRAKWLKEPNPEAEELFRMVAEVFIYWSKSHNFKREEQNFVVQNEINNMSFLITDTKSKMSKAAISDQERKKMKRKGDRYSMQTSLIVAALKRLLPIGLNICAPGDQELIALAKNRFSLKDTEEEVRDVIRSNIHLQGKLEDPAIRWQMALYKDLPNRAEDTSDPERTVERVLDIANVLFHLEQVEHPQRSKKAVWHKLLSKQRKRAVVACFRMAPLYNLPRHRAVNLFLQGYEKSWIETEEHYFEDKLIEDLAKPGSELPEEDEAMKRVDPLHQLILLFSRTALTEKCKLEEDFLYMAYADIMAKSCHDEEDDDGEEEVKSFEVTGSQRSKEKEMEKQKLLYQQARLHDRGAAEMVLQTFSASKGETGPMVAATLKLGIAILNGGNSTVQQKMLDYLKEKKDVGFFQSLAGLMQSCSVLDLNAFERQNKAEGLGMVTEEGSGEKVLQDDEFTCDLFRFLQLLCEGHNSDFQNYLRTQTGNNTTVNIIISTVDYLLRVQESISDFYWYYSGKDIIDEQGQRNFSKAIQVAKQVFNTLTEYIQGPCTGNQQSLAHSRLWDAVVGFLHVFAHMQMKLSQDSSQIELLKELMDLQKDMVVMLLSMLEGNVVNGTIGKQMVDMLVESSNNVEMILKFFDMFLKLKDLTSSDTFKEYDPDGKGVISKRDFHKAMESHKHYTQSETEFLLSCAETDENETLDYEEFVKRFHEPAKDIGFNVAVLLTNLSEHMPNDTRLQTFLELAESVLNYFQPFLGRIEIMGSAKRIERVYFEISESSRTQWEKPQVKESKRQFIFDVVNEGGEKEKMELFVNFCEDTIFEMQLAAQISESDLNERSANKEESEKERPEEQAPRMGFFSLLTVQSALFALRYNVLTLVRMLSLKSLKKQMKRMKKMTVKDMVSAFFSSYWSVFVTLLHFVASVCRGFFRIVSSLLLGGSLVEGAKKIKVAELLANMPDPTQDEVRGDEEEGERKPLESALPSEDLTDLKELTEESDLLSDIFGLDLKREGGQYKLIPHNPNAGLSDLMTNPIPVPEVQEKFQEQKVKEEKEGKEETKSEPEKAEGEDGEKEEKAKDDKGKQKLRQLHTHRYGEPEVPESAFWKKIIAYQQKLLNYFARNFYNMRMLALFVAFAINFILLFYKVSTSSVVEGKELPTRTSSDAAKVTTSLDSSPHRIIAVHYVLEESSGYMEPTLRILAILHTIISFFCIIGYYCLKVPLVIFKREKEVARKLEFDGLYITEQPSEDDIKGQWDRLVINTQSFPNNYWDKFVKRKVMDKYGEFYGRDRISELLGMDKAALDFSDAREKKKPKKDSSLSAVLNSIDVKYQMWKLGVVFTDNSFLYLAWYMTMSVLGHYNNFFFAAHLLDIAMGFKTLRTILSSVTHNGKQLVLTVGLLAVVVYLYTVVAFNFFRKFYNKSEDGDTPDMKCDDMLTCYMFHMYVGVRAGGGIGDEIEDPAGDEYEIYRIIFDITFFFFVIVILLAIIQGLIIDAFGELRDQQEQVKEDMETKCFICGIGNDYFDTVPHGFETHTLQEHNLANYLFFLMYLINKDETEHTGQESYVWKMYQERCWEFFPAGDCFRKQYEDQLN

Row | Kd | Substance
1 | 15.5 nM | GCaMP2.2-FKBP12.6
2 | 43.8 nM | GCaMP2.2Low-FKBP12.6
